{
  "source": "patent US11666664B2",
  "about": "“Self assembling molecules for targeted drug delivery” (The General Hospital Corporation, priority 2015, dated 2023)",
  "test": "Isoelectric point of expressed clathrin heavy chain preparation",
  "assay_type": "physicochemical",
  "settings": "recombinant human clathrin isoform 2 heavy chain with 6His tag from E. coli",
  "excerpt": "The preparation yielded a protein with the following characteristics: […]",
  "data": [
    {"substance": "PE1130119-1: Clathrin human isoform 2 heavy chain expressed in E. coli, soluble protein with 6His tag", "values": [
      {"measurement": "Isoelectric Point", "result": 5.67}
    ]}
  ]
}
